Among the data in paper PMC9407945 (Science immunology, 2022) are Kd, koff and kon values, retold here.

B1: SW186 (murine variable regions, murine-human chimeric) (Fab, V domains shown)
VH: QVQLQQSGAELVKPGASVKISCKASGVAFSSYWMNWVKQRPGKGLEWIGQIYPGDGDTNYNGKFKGKATLTADKSSSTAYMQLSSLSSEDSAVYFCARGFIATVEETMDYWGQGTSVTVSS
VL: DIQMTQTTSSLSASLGDRVTISCRASQDISNYLNWYQQKPDGTVKLLIYYTSRLHSGVPSRFSGSGSGTDYSLTISNLEQEDIATYFCQQSHTLPWTFGGGTKLEIK
B2: humanized SW186 H4L1 (antibody, V domains shown)
VH: QVQLVQSGAEVKKPGSSVKVSCKASGVAFSSYWMNWVKQAPGQGLEWIGQIYPGDGDTNYNGKFKGKATITADKSTSTAYMELSSLRSEDTAVYFCARGFIATVEETMDYWGQGTLVTVSS
VL: DIQMTQSPSSLSASVGDRVTITCRASQDISNYLNWYQQKPGKAPKLLIYYTSRLHSGVPSRFSGSGSGTDFTLTISSLQPEDFATYYCQQSHTLPWTFGGGTKLEIK
B3: humanized SW186 H4L4 (antibody, V domains shown)
VH: QVQLVQSGAEVKKPGSSVKVSCKASGVAFSSYWMNWVKQAPGQGLEWIGQIYPGDGDTNYNGKFKGKATITADKSTSTAYMELSSLRSEDTAVYFCARGFIATVEETMDYWGQGTLVTVSS
VL: DIQMTQSPSSLSASVGDRVTITCRASQDISNYLNWYQQKPGKTVKLLIYYTSRLHSGVPSRFSGSGSGTDYTLTISSLQPEDFATYFCQQSHTLPWTFGGGTKLEIK
B4: humanized SW186 H2L3 (antibody, V domains shown)
VH: QVQLVQSGAEVKKPGSSVKVSCKASGVAFSSYWMNWVRQAPGQGLEWIGQIYPGDGDTNYNGKFKGRVTITADKSTSTAYMELSSLRSEDTAVYFCARGFIATVEETMDYWGQGTLVTVSS
VL: DIQMTQSPSSLSASVGDRVTITCRASQDISNYLNWYQQKPGKAPKLLIYYTSRLHSGVPSRFSGSGSGTDYTLTISSLQPEDFATYFCQQSHTLPWTFGGGTKLEIK
B5: humanized SW186 H1L3 (antibody, V domains shown)
VH: QVQLVQSGAEVKKPGSSVKVSCKASGVAFSSYWMNWVRQAPGQGLEWMGQIYPGDGDTNYNGKFKGRVTITADKSTSTAYMELSSLRSEDTAVYYCARGFIATVEETMDYWGQGTLVTVSS
VL: DIQMTQSPSSLSASVGDRVTITCRASQDISNYLNWYQQKPGKAPKLLIYYTSRLHSGVPSRFSGSGSGTDYTLTISSLQPEDFATYFCQQSHTLPWTFGGGTKLEIK
B6: humanized SW186 H4L3 (antibody, V domains shown)
VH: QVQLVQSGAEVKKPGSSVKVSCKASGVAFSSYWMNWVKQAPGQGLEWIGQIYPGDGDTNYNGKFKGKATITADKSTSTAYMELSSLRSEDTAVYFCARGFIATVEETMDYWGQGTLVTVSS
VL: DIQMTQSPSSLSASVGDRVTITCRASQDISNYLNWYQQKPGKAPKLLIYYTSRLHSGVPSRFSGSGSGTDYTLTISSLQPEDFATYFCQQSHTLPWTFGGGTKLEIK
B7: humanized SW186 H1L4 (antibody, V domains shown)
VH: QVQLVQSGAEVKKPGSSVKVSCKASGVAFSSYWMNWVRQAPGQGLEWMGQIYPGDGDTNYNGKFKGRVTITADKSTSTAYMELSSLRSEDTAVYYCARGFIATVEETMDYWGQGTLVTVSS
VL: DIQMTQSPSSLSASVGDRVTITCRASQDISNYLNWYQQKPGKTVKLLIYYTSRLHSGVPSRFSGSGSGTDYTLTISSLQPEDFATYFCQQSHTLPWTFGGGTKLEIK
B8: humanized SW186 H2L2 (antibody, V domains shown)
VH: QVQLVQSGAEVKKPGSSVKVSCKASGVAFSSYWMNWVRQAPGQGLEWIGQIYPGDGDTNYNGKFKGRVTITADKSTSTAYMELSSLRSEDTAVYFCARGFIATVEETMDYWGQGTLVTVSS
VL: DIQMTQSPSSLSASVGDRVTITCRASQDISNYLNWYQQKPGKAPKLLIYYTSRLHSGVPSRFSGSGSGTDFTLTISSLQPEDFATYFCQQSHTLPWTFGGGTKLEIK
B9: humanized SW186 H4L2 (antibody, V domains shown)
VH: QVQLVQSGAEVKKPGSSVKVSCKASGVAFSSYWMNWVKQAPGQGLEWIGQIYPGDGDTNYNGKFKGKATITADKSTSTAYMELSSLRSEDTAVYFCARGFIATVEETMDYWGQGTLVTVSS
VL: DIQMTQSPSSLSASVGDRVTITCRASQDISNYLNWYQQKPGKAPKLLIYYTSRLHSGVPSRFSGSGSGTDFTLTISSLQPEDFATYFCQQSHTLPWTFGGGTKLEIK
B10: humanized SW186 H3L4 (antibody, V domains shown)
VH: QVQLVQSGAEVKKPGSSVKVSCKASGVAFSSYWMNWVRQAPGQGLEWIGQIYPGDGDTNYNGKFKGRATITADKSTSTAYMELSSLRSEDTAVYFCARGFIATVEETMDYWGQGTLVTVSS
VL: DIQMTQSPSSLSASVGDRVTITCRASQDISNYLNWYQQKPGKTVKLLIYYTSRLHSGVPSRFSGSGSGTDYTLTISSLQPEDFATYFCQQSHTLPWTFGGGTKLEIK
B11: humanized SW186 H3L3 (antibody, V domains shown)
VH: QVQLVQSGAEVKKPGSSVKVSCKASGVAFSSYWMNWVRQAPGQGLEWIGQIYPGDGDTNYNGKFKGRATITADKSTSTAYMELSSLRSEDTAVYFCARGFIATVEETMDYWGQGTLVTVSS
VL: DIQMTQSPSSLSASVGDRVTITCRASQDISNYLNWYQQKPGKAPKLLIYYTSRLHSGVPSRFSGSGSGTDYTLTISSLQPEDFATYFCQQSHTLPWTFGGGTKLEIK
B12: humanized SW186 H2L4 (antibody, V domains shown)
VH: QVQLVQSGAEVKKPGSSVKVSCKASGVAFSSYWMNWVRQAPGQGLEWIGQIYPGDGDTNYNGKFKGRVTITADKSTSTAYMELSSLRSEDTAVYFCARGFIATVEETMDYWGQGTLVTVSS
VL: DIQMTQSPSSLSASVGDRVTITCRASQDISNYLNWYQQKPGKTVKLLIYYTSRLHSGVPSRFSGSGSGTDYTLTISSLQPEDFATYFCQQSHTLPWTFGGGTKLEIK
B13: humanized SW186 H2L1 (antibody, V domains shown)
VH: QVQLVQSGAEVKKPGSSVKVSCKASGVAFSSYWMNWVRQAPGQGLEWIGQIYPGDGDTNYNGKFKGRVTITADKSTSTAYMELSSLRSEDTAVYFCARGFIATVEETMDYWGQGTLVTVSS
VL: DIQMTQSPSSLSASVGDRVTITCRASQDISNYLNWYQQKPGKAPKLLIYYTSRLHSGVPSRFSGSGSGTDFTLTISSLQPEDFATYYCQQSHTLPWTFGGGTKLEIK
B14: humanized SW186 H3L2 (antibody, V domains shown)
VH: QVQLVQSGAEVKKPGSSVKVSCKASGVAFSSYWMNWVRQAPGQGLEWIGQIYPGDGDTNYNGKFKGRATITADKSTSTAYMELSSLRSEDTAVYFCARGFIATVEETMDYWGQGTLVTVSS
VL: DIQMTQSPSSLSASVGDRVTITCRASQDISNYLNWYQQKPGKAPKLLIYYTSRLHSGVPSRFSGSGSGTDFTLTISSLQPEDFATYFCQQSHTLPWTFGGGTKLEIK
B15: humanized SW186 H3L1 (antibody, V domains shown)
VH: QVQLVQSGAEVKKPGSSVKVSCKASGVAFSSYWMNWVRQAPGQGLEWIGQIYPGDGDTNYNGKFKGRATITADKSTSTAYMELSSLRSEDTAVYFCARGFIATVEETMDYWGQGTLVTVSS
VL: DIQMTQSPSSLSASVGDRVTITCRASQDISNYLNWYQQKPGKAPKLLIYYTSRLHSGVPSRFSGSGSGTDFTLTISSLQPEDFATYYCQQSHTLPWTFGGGTKLEIK
B16: humanized SW186 H1L2 (antibody, V domains shown)
VH: QVQLVQSGAEVKKPGSSVKVSCKASGVAFSSYWMNWVRQAPGQGLEWMGQIYPGDGDTNYNGKFKGRVTITADKSTSTAYMELSSLRSEDTAVYYCARGFIATVEETMDYWGQGTLVTVSS
VL: DIQMTQSPSSLSASVGDRVTITCRASQDISNYLNWYQQKPGKAPKLLIYYTSRLHSGVPSRFSGSGSGTDFTLTISSLQPEDFATYFCQQSHTLPWTFGGGTKLEIK
B17: humanized SW186 H1L1 (antibody, V domains shown)
VH: QVQLVQSGAEVKKPGSSVKVSCKASGVAFSSYWMNWVRQAPGQGLEWMGQIYPGDGDTNYNGKFKGRVTITADKSTSTAYMELSSLRSEDTAVYYCARGFIATVEETMDYWGQGTLVTVSS
VL: DIQMTQSPSSLSASVGDRVTITCRASQDISNYLNWYQQKPGKAPKLLIYYTSRLHSGVPSRFSGSGSGTDFTLTISSLQPEDFATYYCQQSHTLPWTFGGGTKLEIK
B18: humanized SW186 H3L2 (antibody, V domains shown)
VH: QVQLVQSGAEVKKPGSSVKVSCKASGVAFSSYWMNWVRQAPGQGLEWIGQIYPGDGDTNYNGKFKGRATITADKSTSTAYMELSSLRSEDTAVYFCARGFIATVEETMDYWGQGTLVTVSS
VL: DIQMTQSPSSLSASVGDRVTITCRASQDISNYLNWYQQKPGKAPKLLIYYTSRLHSGVPSRFSGSGSGTDFTLTISSLQPEDFATYFCQQSHTLPWTFGGGTKLEIK

The target of one assay is SARS-CoV-2 spike ectodomain (S-ecto), Wuhan-hu-1 strain, 2P (SARS-CoV-2, Wuhan-hu-1, UniProt P0DTC2, 2P mutation at residues 986 and 987 | 2P mutation at residues 986 and 987, biotin (NHS-sulfo-LC-Biotin, EZ-link biotinylation kit)). Nature of the assay: BLI. Conditions: both partners purified.
As for B1, the Kd – broadly, the equilibrium constant for the complex coming apart – stood at 1.09 nM; the koff (as a rule, the rate constant with which the complex falls apart) came out at 0.000128 s⁻¹; the kon (in general, the rate constant with which the complex forms) was 117000 M⁻¹ s⁻¹.

As for B2, the affinity, expressed as Kd, was 4.14 nM; the koff is 0.00077 s⁻¹; the kon stood at 186000 M⁻¹ s⁻¹.

The molecule B3 showed a Kd of 1.57 nM, a koff of 0.000338 s⁻¹ and an on-rate constant (kon) of 216000 M⁻¹ s⁻¹.

For the molecule B4, the dissociation constant (Kd) amounted to 3.72 nM, the koff is 0.000713 s⁻¹ and the on-rate (kon) was 191000 M⁻¹ s⁻¹.

Consider B5, for which the Kd is 4.37 nM, the koff was 0.000598 s⁻¹ and the kon worked out at 137000 M⁻¹ s⁻¹.

B6: binding was characterised by a dissociation constant (Kd) of 2.4 nM, the koff stood at 0.000424 s⁻¹ and the kon worked out at 177000 M⁻¹ s⁻¹.

B7 had a Kd of 5.03 nM, a koff of 0.000519 s⁻¹ and a kon of 103000 M⁻¹ s⁻¹.

For the molecule B8, binding was put at a Kd of 12.6 nM, the koff came out at 0.00151 s⁻¹ and the kon worked out at 120000 M⁻¹ s⁻¹.

Consider B9, for which binding was characterised by a dissociation constant (Kd) of 5.86 nM, the koff was found to be 0.000953 s⁻¹ and the kon is 163000 M⁻¹ s⁻¹.

Regarding B10, the Kd came out at 2.6 nM, the koff was 0.000469 s⁻¹ and the kon was 181000 M⁻¹ s⁻¹.

B11 displayed a Kd of 5.82 nM, a koff of 0.000761 s⁻¹ and a kon of 131000 M⁻¹ s⁻¹.

Molecule B12 gave a Kd of 3.14 nM, a koff of 0.000603 s⁻¹ and a kon of 192000 M⁻¹ s⁻¹.

B13 gave a dissociation constant (Kd) of 18.1 nM, a koff of 0.00078 s⁻¹ and a kon of 43100 M⁻¹ s⁻¹.

Molecule B14 registered a Kd of 6.09 nM, a koff of 0.00122 s⁻¹ and a kon of 201000 M⁻¹ s⁻¹.

As to B15, binding was put at a Kd of 6.69 nM, the koff stood at 0.00119 s⁻¹ and the kon worked out at 178000 M⁻¹ s⁻¹.

Consider B16, for which binding was put at a Kd of 26.2 nM, the koff worked out at 0.00126 s⁻¹ and the kon stood at 48200 M⁻¹ s⁻¹.

The target in a further assay is SARS-CoV-2 spike ectodomain (S-ecto), Wuhan-hu-1, 2P (SARS-CoV-2, Wuhan-hu-1, UniProt P0DTC2, 2P mutation at residues 986 and 987, biotinylated (EZ-link NHS-sulfo-LC-Biotin) for the BLI assay). Nature of the assay: BLI. Conditions: both partners purified.
In turn, B17 returned a Kd of 10 nM.

Regarding B18, binding was characterised by a dissociation constant (Kd) of 6.09 nM. This Kd is about 1.6-fold lower than that of the molecule before.
